From the DeepSol protein solubility set

Assay: soluble on expression in E. coli; label from the status in PepcDB or PDB records

MAIFRDQAENHVEHDRSIEDRRRHRQLVEKSIKENLGDILSEESIIGETKNKKYKIPIRGIKEYQFIYGANNKGVTTGTGEERRGDRISSDKRKAISNNKAGNQEGKDIYETEITLEELMDYIVEDLDLPNLDRKKYSEIIVESAAKKRGYQKYGVRPRLAKKKTVMCKIARKQGKKRALREIGEEAEIGRFPFREDDLRYYKVKKHPKKESNAVMIFIMDVSGSMDNTKKYLARSFFFVLSRFIRRKYNNVAFEFISHTTTAKNVNEYEFFHKGESGGTYISSGINAAIDLIKEKYNPGVWNIYPFYASDGDNWSEDNEKAMEAVNEISDLSNMFGYIELLPSTYSTTMFYRFKKEISKENFVSVTVKEKKDLWNAIKYMLSEELQEKNKELEHHHHHH
soluble on expression in E. coli: not soluble

IYAYVPLRTPENTGHLALLDGQLELAYQPIVEVAGSDTAQYQVLLRLRKADGNLLSAGLVIPAAEAAGRIMELDQQVIEQALDILKLHQDTNQQLRLFVSQSVRTLIHEGFSDWIIKNLRERNVNGTGLVIDLRLQDAVIHAIPLKQLCKELLKHNVKFCLSQFESNSEATVLFSELPLNFVRLSQHFGDAHNHPERQKELPLLIEQAHEHNLHVIGQCIEDAQAATFMWMNGVDLIQGNLFQNV
soluble on expression in E. coli: not soluble

MNDKKLLVAYDISSNRRRRKVARILEQCGIRINKSVFICSLRELTMDKLVEAVTSQTAKRDKVFFLPLCQHCYTAAWMSGHPTLPKSRRKRKSIVV
soluble on expression in E. coli: not soluble

MGSDKIHHHHHHMYQVPLEMICRHDRTAEVCRAAVEEDGWQLENVPEEMKTPELCRKALETEAGFGNDFHRGLVQHIPSPEVCMEVLKECRENNPEELYGVAVAIRPEVMNGEMADFLLPLDGRCISILPVHLQTPERVRVAVETSGMSAVGRGGVPKSLLTPDVYVRCAAHSRESLMMIPWAERSPEVCLMAKTLYPDIVKNHPEFVPESVRNQDSIYTLNSLMESLTGEKFSYRQMTDFYNGKPLDVKRMETPDGVQKDKAVKFDKETGKFSFSDIRQERKRGLKM
soluble on expression in E. coli: not soluble

MSLRETIKVGEKAPAFTVAALNGVDSISLSDYKGKIVIVHLWSPTCPHCRETNKVLPGIIGPYSKKANLAYIMIAIDMDTLTLRPVIEEDKLNFAIHGYDPFDGSAKTMMDYEAPGTPCINIVDEKGNLVGVNVTDDQLKKYLKKRFSRNSEGHHHHHH
soluble on expression in E. coli: not soluble

METNIVEVENFVQQSEERRGSAFTQEVKRYLERYPNTQYVDVLLTDLNGCFRGKRIPVSSLKKLEKGCYFPASVFAMDILGNVVEEAGLGQEMGEPDRTCVPVLGSLTPSAADPEFIGQMLLTMVDEDGAPFDVEPRNVLNRLWQQLRQRGLFPVVAVELEFYLLDRQRDAEGYLQPPCAPGTDDRNTQSQVYSVDNLNHFADVLNDIDELAQLQLIPADGAVAEASPGQFEINLYHTDNVLEACDDALALKRLVRLMAEKHKMHATFMAKPYEEHAGSGMHIHISMQNNRGENVLSDAEGEDSPLLKKMLAGMIDLMPSSMALLAPNVNSYRRFQPGMYVPTQASWGHNNRTVALRIPCGDRHNHRVEYRVAGADANPYLVMAAIFAGILHGLDNELPLQEEVEGNGLEQEGLPFPIRQSDALGEFIENDHLRRYLGERFCHVYHACKNDELLQFERLITETEIEWMLKNA
soluble on expression in E. coli: soluble

VIGADVPRDSQRARVYAAEAFVRTLFDRVTAHGSPTVEFFGTQLTLPPEGRFGSVASVQRYVDDVLALPAVGQNWPTVSPVRVRARRAATAAHYENHGGTGTIAVPDRHTAGWAMRELVVLHEVAHHLCQVPPPHGPEFVATVCTLTELVMGPEVGHVFRVVYAQEGVR
soluble on expression in E. coli: soluble

MSRKRTENGSESGPATSHVPVDRFGFLKQEHANSPERFSKSKTTSSTDHDREERKVRKWRKMIGVGGSDWKHYVRRKPNVVRRRIRKGIPDCLRGLVWQLISGSRDLLLMNPGVYEQLVIYETSASELDIIRDISRTFPSHVFFQKRHGPGQRSLYNVLKAYSVYDRDVGYVQGMGFIAGLLLLYMSEEDAFWLLVALLKGAVHAPMEGLYHAGLPLVQQYLFQLESLVKELIPKLGEHFTQEMINPSMYASQWFITVFSYSFPFPLALRIWDVFLSEGVKIVFKVGLALLKYCQDELVSKVTV
soluble on expression in E. coli: not soluble

GPGSMLVPGYGSHLLRFGSTWVYITRAEDPSKQKAAAANRVDRENDKLTLTFFTRRRAVVQQFMKHVQESWRANVRNTVHIYLSEGYGPRWHLLSERIRRPLSTLYLPADTKAVVEEARLFLRLKDTYAALGIPWRRGYLLEGPPGTGKTSFVMALAGELGLPVHILSLRSANMDDDALLSLTSSLPRRSILLIEDLENVLKTPPGAGRSALSSGASDTAAVAAAETSAASPASPYSTDIGGGPRSAMSLSALLNALDGVSSSEGRLLLITTNDTSRIPFAEVLLRPGRVDRRIRFQPLHVEQLREMEASFQQALQASPCSAVENPRLPSARPSAHEDDRSVACTPAQYQQRLLDAVYASLTSRPRAESK
soluble on expression in E. coli: not soluble

IGDMAPKANMGWYNSFSYKGFNLGMMLTARLGGLVVSNTQGVLDYYGVSKASADARDAGGVWINNGYVDAKEYYQTIGGSNGGLGQYYTYSATNVRLSELSFSYAFPKKWFNNKVGITAGFVAKNLWMIYCKAPFDPELTASTSSNFYQGVDYFMTPSTRNLGFNVKFQF
soluble on expression in E. coli: not soluble

MSLDIVLVGCKGFGKEHLRIYSKLGYDVSIVERDSNEAKRCSELFRVYKVYDNYEDALRSGSNIVDLVVPDGLHYEMGSLALKSKKHLLVEKPITPDIDSGISLIQQAEESKLKLMVAEQFYFDPSVNEAIRRINNGEIGKPHTVIVRHQSFRELKGWRNEKSMMGRGILIDEGTHYIDTLLNFGGRYRSLRSFVHRTWDFLGEDTAEAVFNFENGMHGLFFYSWNYPEYPLLPEFEIIGDAGSIYEDIGTKPTEPWDQRKRKTAYGDIIVNGKHIPVEPYDVIEREISGFLNAVEKDEPVPMPPDLALRDIITIDRIYKASSDEGHHHHHH
soluble on expression in E. coli: soluble

MVSKAINSAMNQVDGIVVVGSPGRNLEIEDEKVTFIQSQISDVGKRYFIGLEKIDADYYFLLDYDDIFLSNKVNALKRVFENGKGGAAKESEYYNPSLNYISNVIRNRIDWHISEYSFDADFKKYLLKFVEKYSIPTHVSFDKILFAIMLNYGNMHVVNSKLTEIVSHGDSRMHAKRKRKFYSETYKVFEKFKSIPDLNQSCRQYVEYTYDLNRYLSEPTRENYEHLLASGKYPIPLYKRLYYKYYSIMKPE
soluble on expression in E. coli: not soluble

MAHHHHHHMKEEIPQLQNLERDLLKQRNKYLSKVGNLLNKDVVISNDEDNNKVVTTWGVCKRLEVITDESSEENKSGKGGSKDGGSNKREVPSSSSISGGVVHPNSSIEGKKYYYHFDLLRKIVGANFKKGIQVAGHRGYYFTGAGFFLHNAILQYAINFLVSKNYTPVYPPFFMKKNIMEECAELDDFEETLYKIASSGGNSTATTGTASGALVSKNLNQNDELSRDDLFLIATSEQPLCALHKDETIESKYLPLKYAGVSSCFRKEAGAHGKDIRGILRVHQFDKIEQFCLSLPQTSSKVHKQMMKTCEEFYQSLNIPYRIVSIVSGALNNAAAIKYDLEGYFPSSNQYRELVSCSNCTDYQSNNLNVKYVDSSVRITDVKEDRKKKENTGDHQDDDDDDEIGSDHEEFLKNFHTESRNNVHLLNGTMVAAQRFLCCLLENYQNGEGIVVPEKLRPYMNNVDFIPFIE
soluble on expression in E. coli: not soluble

MASLSQTPPDLPLCRGDRVRMSPLGRERHPRYGTREGVIVGQGSPSSWRVKFDDRKTIQAIHQDYLERVPAQAARFDSSEIWNGWRNDPPATA
soluble on expression in E. coli: not soluble

MAKRVPNMELFVFCEDLEFTQNLDLGYPFMDMTTRDKEEEAYWDMLLMQSCQHGIIANSTYSWWAAYLIENPEKIIIGPKHWLFGHENILCKEWVKIESHFEVKSQKYNALEHHHHHH
soluble on expression in E. coli: soluble

MGSDKIHHHHHHMIIGNCLILKDFSSEPFWGAVEIENGTIKRVLQGEVKVDLDLSGKLVMPALFNTHTHAPMTLLRGVAEDLSFEEWLFSKVLPIEDRLTEKMAYYGTILAQMEMARHGIAGFVDMYFHEEWIAKAVRDFGMRALLTRGLVDSNGDDGGRLEENLKLYNEWNGFEGRIFVGFGPHSPYLCSEEYLKRVFDTAKSLNAPVTIHLYETSKEEYDLEDILNIGLKEVKTIAAHCVHLPERYFGVLKDIPFFVSHNPASNLKLGNGIAPVQRMIEHGMKVTLGTDGAASNNSLNLFFEMRLASLLQKAQNPRNLDVNTCLKMVTYDGAQAMGFKSGKIEEGWNADLVVIDLDLPEMFPVQNIKNHLVHAFSGEVFATMVAGKWIYFDGEYPTIDSEEVKRELARIEKELYSS
soluble on expression in E. coli: soluble
